Molecular target: H234A mutant of SARS-CoV-2 nsp15 with an N-terminal Strep-Tag II (SARS-CoV-2)
Test: cryo-EM structure

“H234A mutant of SARS-CoV-2 nsp15 with an N-terminal Strep-Tag II (enzyme)” was tested, and the stoichiometry N was 6.

— PMC12802955
